We go through 1 substance from patent publication US20240254182A1.

The target in this assay is design 9 G-CSFR(Ig-CRH)E, tag cleaved (human) (UniProt Q99062). The experiment in a line: SPR, WT G-CSF against design 9 G-CSFR(Ig-CRH)E; steady state derived affinity constant. For orientation: Surface plasmon resonance follows binding to a sensor surface in real time, without labels.

As for “WT G-CSF, purified from insect cells, tag cleaved (from UniProt P09919 31-206) (ligand)”, the KD fold change (against WT:WT) stood at 8810 fold.
